Laboratory results published in patent publication US20020150566.

Molecular target: HA-Ras (wild-type) (UniProt P01112)
Sequence of UniProt P01112 (P01112 whole entry, looked up): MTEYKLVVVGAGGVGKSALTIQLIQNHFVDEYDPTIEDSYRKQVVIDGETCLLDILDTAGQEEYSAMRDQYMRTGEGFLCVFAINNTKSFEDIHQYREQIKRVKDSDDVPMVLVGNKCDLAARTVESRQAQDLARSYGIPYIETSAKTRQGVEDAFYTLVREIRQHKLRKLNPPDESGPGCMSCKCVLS

## Flag-SOS
  amount of GTP-bound HA-Ras (32-PO4 labeling, a-HA immunoprecipitation, TLC): expression of Flag-SOS significantly increased the amount of GTP-bound HA-Ras
